Reference: patent US20100009361

Target: HA-tagged RAS

B1: full-length, HA-tagged wild-type SOS1 (protein)
chain: MQAQQLPYEFFSEENAPKWRGLLVPALKKVQGQVHPTLESNDDALQYVEELILQLLNMLCQAQPRSASDVEERVQKSFPHPIDKWAIADAQSAIEKRKRRNPLSLPVEKIHPLLKEVLGYKIDHQVSVYIVAVLEYISADILKLVGNYVRNIRHYEITKQDIKVAMCADKVLMDMFHQDVEDINILSLTDEEPSTSGEQTYYDLVKAFMAEIRQYIRELNLIIKVFREPFVSNSKLFSANDVENIFSRIVDIHELSVKLLGHIEDTVEMTDEGSPHPLVGSCFEDLAEELAFDPYESYARDILRPGFHDRFLSQLSKPGAALYLQSIGEGFKEAVQYVLPRLLLAPVYHCLHYFELLKQLEEKSEDQEDKECLKQAITALLNVQSGMEKICSKSLAKRRLSESACRFYSQQMKGKQLAIKKMNEIQKNIDGWEGKDIGQCCNEFIMEGTLTRVGAKHERHIFLFDGLMICCKSNHGQPRLPGASNAEYRLKEKFFMRKVQINDKDDTNEYKHAFEIILKDENSVIFSAKSAEEKNNWMAALISLQYRSTLERMLDVTMLQEEKEEQMRLPSADVYRFAEPDSEENIIFEENMQPKAGIPIIKAGTVIKLIERLTYHMYADPNFVRTFLTTYRSFCKPQELLSLIIERFEIPEPEPTEADRIAIENGDQPLSAELKRFRKEYIQPVQLRVLNVCRHWVEHHFYDFERDAYLLQRMEEFIGTVRGKAMKKWVESITKIIQRKKIARDNGPGHNITFQSSPPTVEWHISRPGHIETFDLLTLHPIEIARQLTLLESDLYRAVQPSELVGSVWTKEDKEINSPNLLKMIRHTTNLTLWFEKCIVETENLEERVAVVSRIIEILQVFQELNNFNGVLEVVSAMNSSPVYRLDHTFEQIPSRQKKILEEAHELSEDHYKKYLAKLRSINPPCVPFFGIYLTNILKTEEGNPEVLKRHGKELINFSKRRKVAEITGEIQQYQNQPYCLRVESDIKRFFENLNPMGNSMEKEFTDYLFNKSLEIEPRNPKPLPRFPKKYSYPLKSPGVRPSNPRPGTMRHPTPLQQEPRKISYSRIPESETESTASAPNSPRTPLTPPPASGASSTTDVCSVFDSDHSSPFHSSNDTVFIQVTLPHGPRSASVSSISLTKGTDEVPVPPPVPPRRRPESAPAESSPSKIMSKHLDSPPAIPPRQPTSKAYSPRYSISDRTSISDPPESPPLLPPREPVRTPDVFSSSPLHLQPPPLGKKSDHGNAFFPNSPSPFTPPPPQTPSPHGTRRHLPSPPLTQEVDLHSIAGPPVPPRQSTSQHIPKLPPKTYKREHTHPSMHRDGPPLLENAHSS
Q: Which RAS activation does the source give for B1 here?
A: When wild type SOS1 was expressed, RAS activation was low in serum-deprived cells, then increased rapidly after EGF stimulation and finally returned toward basal levels by 30 min
